Test results published in the DeepSol protein solubility set.

assay: soluble on expression in E. coli; label from the status in PepcDB or PDB records

Row | Sequence | soluble on expression in E. coli
1 | MQTNLERIKKHIEKLDTFTATPGQGTTRLTYSKEDLDARNYLKQEMAKVGLTVSEDAIGNIYGRLEGESPDLPAVIVGSHFDSVPNGGAFDGPAGVITGLEVASVFHEQQIKPHFPLEIIAMVEEEGSRFGAGLLASRAITGKVTTEMLHEMKDIDGITATDAMAKLGFNANRVHRAIRTKESVKAFIELHIEQGPILENASEDVALVDTVVGLTQIKVTVKGQAGHAGTTPMLDRKDALVSAVEILGQLPELAIQEGGGTVLTVGKLNVYPNGANVIPDKVIFTVDIRAKDEIHVQNTLAKTKEIIQATEKNGITCEIKDMIYQQPTHLSKEIHQALTESADQLGFKYRTMVSGAGHDAMIFASLTEVGLIFVPSHNGISHAPEEWTDYDKLQKGIEVVLKTVKKWTEESANESENKTNSFK | not soluble
2 | MSEILVLNCGSSSVKFALINPHTSQSLVTGLAENIATKNCKVVFKAEHKIVKYLENGSYKDVFEMLKDFLVENKHLEKIVAIGHRVVHGGQYFSKSVLINADSLEKIKACIALAPLHNPAHIEGIRFCQQIFPELPQVAVFDTAFHQTMPSYIAEYAIPYELTHKHNIRKYGAHGTSHKYVSEQAAKILTQQKANVIVAHLGNGCSITAVVDGKSIDTSMGLTPLDGLVMGTRSGCIDPSIFAYISDNLGWSVTEITNMLNKQSGLLGICGHNDMREVSQLAAKGDSLAKLAIEIFSHRVAKFVASYMIYFNKLDALVFTGGIGENAANIRKNIISKLANLGFMIDHQKNSNSETFINSKNSHNIMVIATNEELMIAQETQNLI | soluble
3 | MNTVPFTSAPIEVTIGIDQYSFNVKENQPFHGIKDIPIGHVHVIHFQHADNSSMRYGYWFDCRMGNFYIQYDPKDGLYKMMEERDGAKFENIVHNFKERQMMVSYPKIDEDDTWYNLTEFVQMDKIRKIVRKDENQFSYVDSSMTTVQENELLKSSLQKAGSKMEAKNEDDPAHSLNYTVINFKSREAIRPGHEMEDFLDKSYYLNTVMLQGIFKNSSNYFGELQFAFLNAMFFGNYGSSLQWHAMIELICSSATVPKHMLDKLDEILYYQIKTLPEQYSDILLNERVWNICLYSSFQKNSLHNTEKIMENKYPELLGKDNEDDALIYGISDEERDDEDDEHNPTIVGGLYYQRP | soluble
4 | DKSYRSTKEIMEYANRFLNDTSIIPMVRSGEKVQSLSISSEDEFVDRVTYAIDDMKKEGIETIGVICENMHDTKYFGELLKSKKYINIIEKENQIYTGGETVMPSYFAKGLEFDGVILVSRENKENKDRVLYVMATRALHKLYDFHIEF | not soluble
5 | MTDFLEIRPLTKEAFTPFGDVIETTPSSMRHINGGQTERHHALSAPEAAGEGARIILNIFRGQPRVFPHKIDMMERHPLGSQSFSPLSGRPFLVVVAQDDGGRPARPQVFLARGDQGVNYRRNVWHYPLMPLQAVSDFLVADREGPGNNLEEYFFDEPFMIAEPSL | not soluble
6 | MKVAICDDNPTLTEKINTMLFNYNPNIFETYTYYNPLKLVNQLDQENFDFFILDIEMSEMSGIDLAKKIRERDILSPIVFLTSYKEYMEEVFQVQTFDYLLKPPTEDRLHQVLEKLRQQLEKKRNYFVFSSNKVTYKIPTKDIIYFEKDKRQVLIHTVGEIYKPYMSTNQINEQLDTNFVQVHSSFIINCAYIKELGKNFLLMDSKEKCIEIPISRRFKAAAHKSIVMSMRGKI | not soluble
7 | SLEKELKVITIDELKKYIRNNEEDKIEEVDVVTSATCGIMSGTAGIFHIPFNEVFKRAEEIYLNDIKGVVGICPNEFLGKVDAIFYGEVGFLFKDLVKGKVVEAKAISEGKIYKNEITIDDLPTAKMIGTRMAFKNYTAITNLSDEEVNTIFHRLPLKKGEASFSGCGMLNPLENMVIKDEKDVVGKKALLNGAEAIILGFGTRASIEKPNLMMSADMKDMDAYYLGGFVTSNGIEIYNTIAVPIKVDEHKEALKKLDKDITLPLVNIFGREIIDIGSYAEVWENVDLRPKIYQDKCKNCRECLVEKYCPTFAIKRENGKIKITEDCFGCGVCNICPYGVFKTKLGSVCGIPITCRQSDRKRALKLAKELKKKIERGEFKI | not soluble
8 | MLRFVAILQFILLLLLIFSCNADEAKCTIKPYEAKGDKSPGSNGYVIEINGTTTKSMDISKGFVPGEIYKVSIRGWRTQYTVKTFRGFVVSSLFEDNTSAGSWQVVKGHGDARISPGCRQSGVSHANLKSKTSVHMMWKAPEVSSGCVVFRASVIETKYIWFTEAEGLTVKLCIQKGTQILKPVDDPSATCCACDIAQYDLEFTGIWSKNTHPKDYPTLEHLTHFTDMLGSSHSSNYSLWTIGGISTDGMKEIAEWGNTYKAEAEAKAKASEVRSLMKVKGLWFPDVQGTTKSQFVVNKYHHFVSLATMFGPSPDWCVGLSSVNLCLPDCTWAEERTFELQPFDAGTDSGPTYMSPNEPTEPREPIHWITTKLNPLSPFYNSKSDTIPTLAKVILRRKNVTSSECKSDDILKAEAHNITNTSEDEEYKDRRECMMTQWEPWSLCSATCGKGIRIRSRVYVFPIKAQVFHCHRQTTEKQFCNAKINECENSEAFSSKCQVSSWGSWGECSVQCGHGMRSRNRTFLNPATKSGDCSVDLERKDICVGENGDDCNVTPDPLCKTTAWSDWSPCSASCDEGVRVRTRLFFYSEHEKRCMHVNLQEKDTCVMQSCRRFIEINSEEICQEDKQAGQCAGNFPRYWYNHEKTQCERFIFTGCKGNRNQFETEEECKQICLPGYEKSKSLIPNNQLLEDFGNTEVDDGGERVDCEVSKWTAWGSCSVSCGRGKKSRSRHVVKLARNGGHQCSEHLMQELQCRLRPCPVKLTCQVGPWSRWSPCSVSCGEGSQTRRRRVVRARNDDWEEIECDDAETEVRQCTGRHQC | not soluble
9 | MANANPFARIADRYDGTPPRLRPPLVTQAVGEVIPFVDTAGCFVEAYTPRRVAVRLDNEERLHNHLGGLHAAALALLAETATGLVVALNVPDGSSPLLRTMDISFENFARDAVQAEATLTDAETSQVRSRPLGQIAVDVALTAPDDDTTLVAGTLTWAWVPEARLVDEGERLEHHHHHH | not soluble
10 | MSLKVPGIRNYDGPAGGWGALKATATAVREQMDTLKAPLTLMRTNQPDGFDCPGCAWPDKEHKSTFQFCENGAKAVTWEATNKRVTPAFFAQHPVTSLLQRSDYELEDLGRLTEPLVYDRASDTFKPVAWQDAFARIGEILRSLQPEQVEFYTSGRASNEAAYLYQLFAREYGCNNFPDCSNMCHEPTSVGLPRSIGIGKGTVSLEDFDLCELIISIGHNPGTNHPRMMGTLHEASRRKVPIMVFNPLRERALERFADPQNMVEMATYGSTRIASSYFQVKAGGDAAAIKGIMKALLALEDSLGQVLDQAFIAEHTQGFEALAADLHATAWADIEQASGLHQADLEMVAAAYAKSNATIVTYGMGITQHNEGTANVRLICDLLMLRGNLGKPGAGICPLRGHSNVQGNRTVGITEKPSPAFLDKLQQTFGFTPPAHHGHDAVQAMQAMIAGSAKALLCLGGNFAVALPDPGQCFPAMGKLDLSVHIATKLNRSHLLVARETFLFPCLGRTELDMQDGLRQAITVEDSMSMVHASAGKLAPASEFLLSEPAIVAGMARATLPGSRVPWLELVADYDKIRDLIEQTVPGFDDYNARIRVPGGFRMPLAAAERQWLTPSGKAEFFVFPGLHEDKEVDGADVLRLITLRSHDQYNTTIYALDDRYRGVFGRRDVLFISPADLAARGLAHGDLVDIETVIGGRRLRYEKITAIEYKIANGTVGAYYPEANRLVPLDYLDVDSGTPSYKSVPVRVLRSSPAEGHHHHHH | soluble
11 | MGSDKIHHHHHHENKLVSGAVGLGFGTGPTFPGADENDSGLFPVVDLKIGQYVVVNQRGLGLEHSRSLGHGELSYGLGVGYDFTSRSVEDDLRLAGLSDVDAGAMATLFLEYQTGPFSYGLEVMRGLNSDGHEGTRAKLSGGYDIQLSERAGLSVSPYLIWADDNWMDSFFSVSNAQSVASGLAAYDANAGMSQAGLNLTASYALREQVIVFASVDYATLLGDAADSSVSFDDNAASLSAGVMFRF | not soluble
12 | MDLVDPLAEPCAVCGDKSTGTHYGVISCNGCKGFFRRTVLRDQKFTCRFNKRCVIDKNFRCACRYCRFQKCVQVGMKREAIQFERDPVGSPTSGASLNGTPFKKDRSPGYENGNSNGVGSNGMGQENMRTVPQSSSVIDALMEMEARVNQEMCNRYRRSQIFANGSGGSNGNDTDIQQGSDSGASAFAPPNRPCTTEVDLNEISRTTLLLMVEWAKTINPFMDLSMEDKIILLKNYAPQHLILMPAFRSPDTTRVCLFNNTYMTRDNNTDLNGFAAFKTSNITPRVLDEIVWPMRQLQMREQEFVCLKALAFLHPEAKGLSNSSQIMIRDARNRVLKALYAFILDQMPDDAPTRYGNILLLAPALKALTQLLIENMTLTKFFGLAEVDSLLSEFILDDINDHSTAPVSLQQHLSSPTTLPTNGVSPLNPAGSVGSVSSVSGITPTGMLSATLAAPLAIHPLQSQDSILNSEQNNHML | soluble
13 | MNVTSKPGELVPESDVAAIMRGTHGDPFRVLGMHGGGGAPLSVRVFAPQAAEVAVLGQGGEVLAPLERIGAEGFFAGTVPGEEKFPYRLRFVSGPHEWEADDPYRFPEVLG | not soluble
14 | MSLGEKRVELHLHTPMSQMDAVTPVSKLVAQAGKWGHEAIAVTDHAVAQSFPEAYSAGKKAGVKVIYGVEANLVNDGVPIAYNEEHRLLADETYVVFDVETTGLSAVYDTVIELAAVKVKGGEIIDRFESFANPHQPLSATIIELTGITDDMLTDAPEVDEVFKKFEEWMGDHTLVAHNASFDMGFINVGFKKAGLEKTKNPVIDTLELARFLFPEMKNHRLNTLCKKMDIELTQHHRAIYDTEATGYLLVKMLKDVIEKGFEYHDQLNDSMGQGDAYKRGRPSHMTLLATSDVGLKNLYKLVSYSHLNYFYRVPRVPRSLLKKYREGILVGTACDKGEVFEAMMQKAPEEVEEIAQFYDYIEVMPPEVLRHLVERELVRDEGQLKTIISNLVKLGETLDKPVVATGNVHYLDPEDAMYRKILVSSQGGANPLNRHSEGHHHHHH | soluble
15 | MSFLSNSLNRISFNSFSNMHSLLSSKFQEHYNDIYDWNGNIENIYKANTFISIGYKLLYPLGVLEANFDKEKLKKFLFRICSYYNDIPYHTSLHAAQVAHFSKSMLFMLDMNHKISAIDEFCLHISSLCHDTGHPGLNNYFLINSENNLALTYNDNSVLENYHCSLLFKTLKNPNYNIFEHYPYHIFISCKKNIIKAILSTDMKNHFEYISDFRTSKEFIDYDNLSNDQIWQIFCLILKASDIGHSTLEWNKHLEWTLKINEEFYLQGLLEKSLNIQNSFLCDINTMNKLALSQIDFLKHLCIPLFNELNYICKNNDVYTHCIQPIENNIERWESHKNDNQNLGLHEKYKEENLLSKLELIKFE | not soluble
16 | MNEEGGYLGAMTYQCLYSPVMEKIKQQHRDDPRASLALNKLHTALTTCEQASPSFLYDFTKVLLDDSELSVNLQESYLRMHDTSPTNDLIVSGYEQNADYKELTKRAIELRRVLSRVPEEMSDRHAFLETIKLIASSIKKLLEAINAVYRIVPLTAQPAVEKRKREFVHYSKRFSNTLKTYFKDQNANQVSVSANQLVFQTTMIVRTINEKLRRG | not soluble
17 | SNAMKIIFSASPANRAAAYALRQAVFVEERGISADVEFDVKDTDQCEYAVLYLQPDLPITTLRLEPQADHVMRFGRVCTRKAYRGHGWGRQLLTAAEEWATQRGFTHGEIHGELTAQRFYELCGYRVTAGPYDEDGAPVVIMHKQLL | soluble
18 | MLQFYRNLGKSGLRVSCLGLGTWVTFGGQITDEMAEHLMTLAYDNGINLFDTAEVYAAGKAEVVLGNIIKKKGWRRSSLVITTKIFWGGKAETERGLSRKHIIEGLKASLERLQLEYVDVVFANRPDPNTPMEETVRAMTHVINQGMAMYWGTSRWSSMEIMEAYSVARQFNLIPPICEQAEYHMFQREKVEVQLPELFHKIGVGAMTWSPLACGIVSGKYDSGIPPYSRASLKGYQWLKDKILSEEGRRQQAKLKELQAIAERLGCTLPQLAIAWCLRNEGVSSVLLGASNAEQLMENIGAIQVLPKLSSSIVHEIDSILGNKPYS | soluble
